The target of experiment [1] is T1, recombinant hMCAM-His (human, UniProt P43121 24-559).
T1 construct: not shown: His tag
T1 chain: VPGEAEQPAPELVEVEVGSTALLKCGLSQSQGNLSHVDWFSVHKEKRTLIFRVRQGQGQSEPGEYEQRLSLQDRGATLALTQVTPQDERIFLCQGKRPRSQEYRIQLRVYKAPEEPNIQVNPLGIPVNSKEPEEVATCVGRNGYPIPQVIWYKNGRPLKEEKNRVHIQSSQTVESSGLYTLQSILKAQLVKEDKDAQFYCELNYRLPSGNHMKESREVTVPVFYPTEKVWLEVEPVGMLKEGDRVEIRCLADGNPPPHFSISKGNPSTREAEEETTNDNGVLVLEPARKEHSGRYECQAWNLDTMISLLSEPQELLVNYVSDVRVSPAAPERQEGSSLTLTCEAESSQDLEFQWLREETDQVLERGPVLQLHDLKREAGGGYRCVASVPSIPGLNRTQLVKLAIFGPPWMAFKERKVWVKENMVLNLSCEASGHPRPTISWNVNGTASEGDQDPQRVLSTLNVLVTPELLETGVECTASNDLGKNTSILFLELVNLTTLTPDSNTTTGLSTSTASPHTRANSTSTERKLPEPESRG
The experiment in a line: ForteBio Octet Red, hMCAM-His analyte; Expt. #1; vs rodent 2107. The procedure:
(§1) The affinities were measured using the ForteBio Octet Red. Anti-human Fc sensors were used to capture the humanized antibodies, and several concentrations of hMCAMHis analyte were used to determine the affinity using a 1:1 fitting model.

Experiment [2] addresses T1, recombinant hMCAM-His. The experiment in a line: summary of ForteBio and competitive ELISA on hMCAM-His; vs rodent 2107. The procedure:
(§2) ELISA plates were coated with recombinant hMCAM-His, and blocked with casein buffer to prevent non-specific binding. Biotinylated rodent or chimeric antibody was added at a subsaturating concentration, in the presence or absence of 3× increasing concentrations of unlabeled competitor (humanized antibody, rodent, or chimeric). After washing to remove unbound antibody, streptavidin HRP was added to allow detection of the biotinylated antibody. The ELISA was developed with TMB substrate and the OD450 was measured. The IC50 of the unlabeled competitor was determined using the GraphPad Prism5 software.
as §1

The target in experiment [3] is T2, human MCAM (melanoma cell adhesion molecule) expressed on transfected CHO cells (human, UniProt P43121 24-646).
T2 construct: also called hMCAM; CD146
T2 chain: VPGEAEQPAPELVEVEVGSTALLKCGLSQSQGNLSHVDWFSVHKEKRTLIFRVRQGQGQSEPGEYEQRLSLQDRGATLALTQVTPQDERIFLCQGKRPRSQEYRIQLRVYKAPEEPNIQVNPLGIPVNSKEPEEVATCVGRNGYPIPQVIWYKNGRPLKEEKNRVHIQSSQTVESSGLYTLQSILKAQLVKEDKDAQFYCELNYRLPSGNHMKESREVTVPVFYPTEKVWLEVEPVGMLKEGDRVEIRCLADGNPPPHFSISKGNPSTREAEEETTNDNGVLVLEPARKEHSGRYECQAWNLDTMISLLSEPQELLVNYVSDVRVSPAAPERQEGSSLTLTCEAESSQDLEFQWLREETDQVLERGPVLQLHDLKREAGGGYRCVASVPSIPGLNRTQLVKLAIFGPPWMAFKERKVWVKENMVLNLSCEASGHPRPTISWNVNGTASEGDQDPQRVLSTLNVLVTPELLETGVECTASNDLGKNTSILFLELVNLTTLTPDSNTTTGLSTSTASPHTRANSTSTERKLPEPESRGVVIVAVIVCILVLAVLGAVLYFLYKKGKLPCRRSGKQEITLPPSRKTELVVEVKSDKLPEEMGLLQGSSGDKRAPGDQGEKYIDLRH
The experiment is described as follows: summary of laminin blocking assay on hMCAM CHO cells, competitor laminin 411; vs rodent 2107. The procedure: (§3) Following incubation for 30-45 minutes, the cells were washed and anti-laminin conjugated to AF650 (NovusBio) was added to detect the bound laminin. The cells were run on a flow cytometer to measure the laminin binding signal.

The target of experiment [4] is T1, recombinant hMCAM-His. The experiment in a line: competitive ELISA on hMCAM-His, competitor biotinylated rodent or chimeric 2107; Expt. #1; vs rodent 2107. The method, then:
as §2

Experiment [5] concerns the target T3, human MCAM domain 1 (amino acids 19-129), Fc-tagged (human, UniProt P43121 19-129).
T3 construct: also called MCAM Fc domain 1
T3 sequence: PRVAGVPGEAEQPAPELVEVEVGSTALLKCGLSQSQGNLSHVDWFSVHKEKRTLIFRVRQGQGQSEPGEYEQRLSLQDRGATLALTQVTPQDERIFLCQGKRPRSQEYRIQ
The experiment in a line: ForteBio domain mapping as in Example 8. For orientation: In BLI a coated tip is dipped into the sample, and binding shifts an interference pattern.

Experiment [6] addresses T4, human MCAM domain 2 (amino acids 139-242), Fc-tagged (human, UniProt P43121 139-242).
T4 sequence: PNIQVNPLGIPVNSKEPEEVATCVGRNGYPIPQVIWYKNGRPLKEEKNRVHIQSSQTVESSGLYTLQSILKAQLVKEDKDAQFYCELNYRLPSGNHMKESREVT
The experiment in a line: ForteBio domain mapping as in Example 8.

Experiment [7] concerns the target T5, Recombinant human Fc-tagged MCAM IgG1-2A (human MCAM domains 1 and 2, amino acids 19-242) (human, UniProt P43121 19-242).
T5 construct: also called human MCAM IgG1-2A; MCAM Fc domains 1 and 2; not shown: human Fc tag
T5 sequence: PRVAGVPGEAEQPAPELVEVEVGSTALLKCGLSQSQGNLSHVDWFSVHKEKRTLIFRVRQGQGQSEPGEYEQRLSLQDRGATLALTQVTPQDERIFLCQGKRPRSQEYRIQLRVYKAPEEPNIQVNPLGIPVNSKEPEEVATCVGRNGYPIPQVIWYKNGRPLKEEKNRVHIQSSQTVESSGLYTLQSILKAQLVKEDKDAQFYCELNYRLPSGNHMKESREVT
The experiment is described as follows: ForteBio domain mapping as in Example 8.

In experiment [8] the target is T6, human MCAM domain 3 (amino acids 244-321), Fc-tagged (human, UniProt P43121 244-321).
T6 construct: also called domain 3 of the human MCAM protein
T6 sequence: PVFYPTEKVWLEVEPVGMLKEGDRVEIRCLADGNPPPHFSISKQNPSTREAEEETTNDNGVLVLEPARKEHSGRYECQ
The experiment in a line: ForteBio domain mapping as in Example 8.

Experiment [9] concerns the target T2, human MCAM (melanoma cell adhesion …). The experiment is described as follows: flow cytometry, human MCAM CHO cells preincubated with antibody, competitor recombinant human laminin 411 at 20 ug/ml. The method, then:
The 87 independent mouse fusion clones and 26 independent rat fusion clones described in Example 10 above as being capable of (i) binding to human MCAM, and (ii) blocking the interaction between human MCAM and the α-4 chain of laminin were further characterized as follows. First, IC50 quantitation for the ability of the monoclonal antibody to block the binding of human MCAM to the α-4 chain of laminin was determined as follows. CHO cells expressing human MCAM were incubated with an anti-human MCAM antibody (at various concentrations) for 30 minutes at 4 degrees Celsius. […] Unbound laminin was then washed away, and the laminin bound to the surface of the cells was detected with fluorescently labeled anti-laminin antibodies. After washing, the amount of laminin bound to the surface was detected by flow cytometry, and IC50s were calculated based on the mean fluorescent intensity.
These six anti-MCAM monoclonal antibody clones are herein referred to as (i) the mouse anti-human MCAM monoclonal clones 1174.1.3, 1414.1.2, 1415.1.1, and 1749.1.3, and (ii) the rat anti-human MCAM monoclonal antibody clones 2120.4.19 and 2107.4.10. […] As such, each of these specific monoclonal antibodies was very capable of binding to human MCAM and inhibiting the interaction of cell-expressed human MCAM with its α-4 laminin binding ligand.
On the technique in general: In flow cytometry, cells or beads pass a laser one at a time.

Experiment [10] deals with T1, recombinant hMCAM-His. The experiment in a line: ForteBio Octet Red, hMCAM-His analyte; Expt. #2; vs rodent 1749. The method, then:
as §1

Experiment [11] addresses T1, recombinant hMCAM-His. The experiment in a line: ForteBio Octet Red, hMCAM-His analyte; Forte column 1; vs rodent 1749. The procedure:
as §1

Experiment [12] has as its target T2, human MCAM (melanoma cell adhesion …). The experiment in a line: laminin/FACS on hMCAM CHO cells, competitor laminin 411; Expt#1; vs rodent 1749. The procedure: as §3
Experiment [13] has the same target. The experiment in a line: laminin/FACS on hMCAM CHO cells, competitor laminin 411; Expt#2; vs rodent 1749. The method, then: as §3
Experiment [14] has as its target T1, recombinant hMCAM-His. The experiment is described as follows: competitive ELISA on hMCAM-His, competitor biotinylated rodent or chimeric 1749; Expt. #1; vs rodent 1749. The procedure: as §2
(In general: In an ELISA, binding on a coated surface is turned into a signal by an enzyme label.)

The target in experiment [15] is T1, recombinant hMCAM-His. The experiment in a line: competitive ELISA on hMCAM-His, competitor biotinylated rodent or chimeric 1749; Expt. #2; vs rodent 1749. The procedure: as §2
Experiment [16] deals with T2, human MCAM (melanoma cell adhesion …). The experiment in a line: laminin/FACS blocking assay, % inhibition of laminin 411 binding to hMCAM-expressing CHO cells against antibody concentration; blocked ligand: laminin 411. The procedure: as §3

Positions count from the first letter of the chain named.

B1: h2107_VH3 + h2107_VL2 (antibody, human IgG1, V domains shown)
VH: QVTLKESGPVLVKPTETLTLTCTVSGFSLTSNGVSWVRQPPGKALEWIAAISSGGSTYYNSAFKSRLTISRNTSKSQVVLTMTNMDPVDTATYYCARHRPFYFDYWGQGTLVTVSS
VL: DIQMTQSPSSLSASVGDRVTITCKGSQNIYKSLAWFQLKPGKVPKLLIYDANSLQTGIPSRFSGSGSGTDFTLTISSLQPEDVATYYCQQYYSGYTFGGGTKVEIK
notes: also called VH3VL2
In the case of B1, the “fold over rodent (Forte affinity)” value with recombinant hMCAM-His [1] came to 2.54 fold. The “fold reduction in affinity compared to the rodent” value in the experiment with recombinant hMCAM-His [2] is less than 3 fold. Besides, the “fold reduction in potency compared to the rodent” value in experiment [3] is less than 3 fold. The “fold over rodent (competitive ELISA)” value with recombinant hMCAM-His [4] came out at 1.62 fold.

B2: mouse anti-human MCAM monoclonal antibody clone 1415.1.1 (antibody, V domains shown)
VH: QVQLQQPGAELVQPGAPVKLSCKASGYIFTSYWMNWVKQRPGRGLEWIGRIDPSDSKIHYNQKFKDKATLTVDRSSSTAYIQLGSLTSEDSAVYYCAKEGGLRRGDYAMDYWGQGTSVTVSS
VL: DIVMTQSPATLSVTPGDRVSLSCRASQSISDYLHWYQQKSHESPRLLIKYASQSISGIPSRFSGSGSGSDFTLSINSVEPEDVGVYYCQNGHNFPRTFGGGTKLEIK
notes: mouse hybridoma antibody
The term IC50 denotes the midpoint of a concentration-inhibition curve. B2: the binding result in [5] is given as “no binding”; in [6], “no binding”; in experiment [7], “no binding”; in experiment [8], “binds”. In addition, in [9], the IC50 came out at 0.307 µg/mL.

B3: chimeric 1749 (antibody, V domains shown)
VH: DVKLVESGGDLVKPGGSLKLSCAASGFTFSSYIMSWVRQTPEKRLEWVATISSGGSSTYYPDSVKGRFTISRDNAKNTLYLQMSSLKSEDTAMYYCTRDDDYDVKVFAYWGQGTLVTVSA
VL: DIVMSQSPSSLAVSAGEKVTMNCKSSRSLLNSRIRKNYLAWYQQKPGQSPKLLIYWASTRESGVPDRFTGSGSGTDFTLTISSVQAEDLAVYYCKQSYNLLTFGAGTKLELK
For B3, the “fold over rodent (Forte affinity)” value with recombinant hMCAM-His [10] turned out to be 0.79 fold; with recombinant hMCAM-His [11], 0.6 fold. The “fold over rodent (blocking, laminin/FACS)” value in experiment [12] and in experiment [13] was 1.4 fold each time. Besides, the “fold over rodent (competitive ELISA)” value with recombinant hMCAM-His [14] is 0.81 fold; with recombinant hMCAM-His [15] it was 0.97 fold. For the same molecule, the “IC50 (read off the curve)” value in experiment [16] was roughly 0.5 µg/mL.

B4: mouse anti-human MCAM monoclonal antibody clone 1414.1.2 (antibody, V domains shown)
VH: EIQLQQTGPELVKPGASVKISCKASGYSFTDYIMLWVKQSHGKSLEWIGNINPYSGSSGYNLKFKGKATLTVDKSSSTAYMQLNSLTSEDSAVYYCARGKDFAMDYWGQGTSVTVSS
VL: B3 VL with N22S, R27Q, R33S, I34T, Y38F, L100R, L101Y, A105G, L111I
notes: mouse hybridoma antibody
In the case of B4, the binding result in experiment [5] is recorded as “no binding”; in [6] it was “no binding”; in experiment [7], “no binding”; in experiment [8] it was “binds”. In addition, the IC50 in experiment [9] came to 0.431 µg/mL.

B5: mouse anti-human MCAM monoclonal antibody clone 1174.1.3 (antibody, V domains shown)
VH: QIQLVQSGPELKKPGETVKISCKASGYTFTNYGMNWVKQAPGKGLKWMGWINTYTGEPTYADDFKGRFALSLETSASTAYLQINNLKNEDMATYFCARYRYNKYERAMDYWGQGTSVTVSS
VL: DIVLTQSPASLAVSLGQRATISCRASKSVSTSGYSYMYWYQQKPGQPPKLLIYLASNLESGVPARFSGSGSGTDFTLNIHPVEEEDAATYYCQHSRELPFTFGSGTKLEIK
notes: mouse hybridoma antibody
Take B5: the binding result is on record as “no binding” in experiment [5], “no binding” in experiment [6], “no binding” in [7] and “binds” in experiment [8]. The IC50 in experiment [9] came to 0.469 µg/mL.

The record behind these values is patent publication US20150239980A1 (NEOTOPE BOSCIENCES, published 2015).
